According to US20060104978A1, “Methods and compositions for PDGF-C activation and inhibition” (LUDWIG INSTITUTE FOR CANCER RESEARCH, priority 2003, published 2006):

Columns and labels:
[1] = molecular target: T1, latent PDGF-DD (Homo sapiens, UniProt Q9GZP0); test: Cotransfection assay in COS-1 cells: protease plus full-length PDGF-D; format: cell-based; conditions: COS-1 conditioned medium, immunoblot
T1 construct: cotransfected with full-length PDGF-C (Li et al, 2000), full-length PDGF-D (Bergsten et al, 2001); expressed in transfected cells; host or cells: COS-1 cells
Excerpt: (§1) A cotransfection assay was established to identify serine proteases able to cleave and activate latent PDGF-CC. Expression plasmids encoding the relevant enzymes and full-length PDGF-C were cotransfected into COS-1 cells, and aliquots of the conditioned media from the transfectants were subjected to SDS-PAGE and immunoblotting using antibodies to the growth factor domain of PDGF-C. […] As a specificity control, the ability of tPA and NT to use full-length PDGF-DD as the substrate in the cotransfection assay was analysed. […] One difference in the latter results, as compared with the results from the cotransfection assay, was that purified tPA generated a second intermediate species of 32 kDa using latent PDGF-CC as the substrate. […]
To test the endogenous expression of PDGF-CC, subconfluent AG1523 cells and primary fibroblast cultures were cultured in serum-free DMEM overnight. […] In the case of the primary cultures, total protein concentration was measured and normalized (Bradford, 1976). […] PDGF-C and PDGF-D were detected by immunoblotting using affinity-purified polyclonal rabbit antibodies against PDGF-C (Li et al, 2000) and PDGF-D (Bergsten et al, 2001), respectively. The His6-tagged proteins were detected using an anti-His monoclonal antibody (C-terminal, Invitrogen). tPA was detected using sheep polyclonal antibodies against human tPA (ab9030, Abcam).

[2] = molecular target: T2, latent PDGF-CC (Homo sapiens, UniProt Q9NRA1); test: Cotransfection assay in COS-1 cells: protease plus full-length PDGF-C; format: cell-based; conditions: COS-1 conditioned medium, immunoblot, 22 kDa species under reducing conditions
T2 construct: cotransfected with full-length PDGF-C (Li et al, 2000), full-length PDGF-D (Bergsten et al, 2001); expressed in transfected cells; host or cells: COS-1 cells
T2 sequence (Q9NRA1 23-345): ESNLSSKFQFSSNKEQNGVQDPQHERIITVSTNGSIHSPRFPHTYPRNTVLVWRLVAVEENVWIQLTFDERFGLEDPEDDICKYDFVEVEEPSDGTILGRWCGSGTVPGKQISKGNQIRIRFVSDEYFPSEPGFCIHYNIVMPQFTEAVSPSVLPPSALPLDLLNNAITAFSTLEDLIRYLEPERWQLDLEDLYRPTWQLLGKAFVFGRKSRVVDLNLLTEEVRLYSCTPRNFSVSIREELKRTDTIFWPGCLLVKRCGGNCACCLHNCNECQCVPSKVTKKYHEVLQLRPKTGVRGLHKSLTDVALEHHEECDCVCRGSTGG
Excerpt: as §1, with “substrate. It is possible that this intermediate is the result of digestion by plasmin contamination in the tPA preparation, since the size of the fragment is similar to that of plasmincleaved PDGF-CC previously reported (Li et al, 2000).” for “substrate.”
To test the endogenous expression of PDGF-CC, subconfluent AG1523 cells and primary fibroblast cultures were cultured in serum-free DMEM overnight. […] In the case of the primary cultures, total protein concentration was measured and normalized (Bradford, 1976). […]

B1: neurotrypsin: human neurotrypsin, trypsin-like serine protease cloned from AG1523 cells (protein)
chain: FDSVLNDSLHHSHRHSPPAGPHYPYYLPTQQRPPRTRPPPPLPRFPRPPRALPAQRPHALQAGHTPRPHPWGCPAGEPWVSVTDFGAPCLRWAEVPPFLERSPPASWAQLRGQRHNFCRSPDGAGRPWCFYGDARGKVDWGYCDCRHGSVRLRGGKNEFEGTVEVYASGVWGTVCSSHWDDSDASVICHQLQLGGKGIAKQTPFSGLGLIPIYWSNVRCRGDEENILLCEKDIWQGGVCPQKMAAAVTCSFSHGPTFPIIRLAGGSSVHEGRVELYHAGQWGTVCDDQWDDADAEVICRQLGLSGIAKAWHQAYFGEGSGPVMLDEVRCTGNELSIEQCPKSSWGEHNCGHKEDAGVSCTPLTDGVIRLAGGKGSHEGRLEVYYRGQWGTVCDDGWTELNTYVVCRQLGFKYGKQASANHFEESTGPIWLDDVSCSGKETRFLQCSRRQWGRHDCSHREDVSIACYPGGEGHRLSLGFPVRLMDGENKKEGRVEVFINGQWGTICDDGWTDKDAAVICRQLGYKGPARARTMAYFGEGKGPIHVDNVKCTGNERSLADCIKQDIGRHNCRHSEDAGVICDYFGKKASGNSNKESLSSVCGLRLLHRRQKRIIGGKNSLRGGWPWQVSLRLKSSHGDGRLLCGATLLSSCWVLTAAHCFKRYGNSTRSYAVRVGDYHTLVPEEFEEEIGVQQIVIHREYRPDRSDYDIALVRLQGPEEQCARFSSHVLPACLPLWRERPQKTASNCYITGWGDTGRAYSRTLQQAAIPLLPKRFCEERYKGRFTGRMLCAGNLHEHKRVDSCQGDSGGPLMCERPGESWVVYGVTSWGYGCGVKDSPGVYTKVSAFVPWIKSVTKL
B1 was tested, and the “cleavage and activation of latent PDGF-DD by the coexpressed protease” value [1] was “neither of the two enzymes was able to cleave and activate latent PDGF-DD” and the “cleavage of latent PDGF-CC by the coexpressed protease” value [2] was “lacked proteolytic activity toward latent PDGF-CC”.
